# Measurements reported in the PETadex activity labels (doi:10.1007/s00253-011-3781-6).
# B1: unnamed (protein)
# chain: MSVTTPRRETSLLSRALRATAAAATAVVATVALAAPAQAANPYERGPNPTESMLEARSGPFSVSEERASRFGADGFGGGTIYYPRENNTYGAIAISPGYTGTQSSIAWLGERIASHGFVVIAIDTNTTLDQPDSRARQLNAALDYMLTDASSAVRNRIDASRLAVMGHSMGGGGTLRLASQRPDLKAAIPLTPWHLNKSWRDITVPTLIIGAEYDTIASVTLHSKPFYNSIPSPTDKAYLELDGASHFAPNITNKTIGMYSVAWLKRFVDEDTRYTQFLCPGPRTGLLSDVEEYRSTCPF
# Legend:
# Settings in all cases: pH 6; 37 °C
# [1] = substrate: p-NP-C2
# [2] = substrate: p-NP-C4
# [3] = substrate: p-NP-C6
# [4] = substrate: p-NP-C8
protein,measurement,setting,value
B1,Km,[1],3220 µM
same,kcat,[1],2.06 s⁻¹
same,kcat/Km,[1],640 M⁻¹ s⁻¹
same,Km,[2],3410 µM
same,kcat,[2],4.48 s⁻¹
same,kcat/Km,[2],1310 M⁻¹ s⁻¹
same,Km,[3],2370 µM
same,kcat,[3],3.28 s⁻¹
same,kcat/Km,[3],1380 M⁻¹ s⁻¹
same,Km,[4],1870 µM
same,kcat,[4],2.45 s⁻¹
same,kcat/Km,[4],1310 M⁻¹ s⁻¹
